Results on two molecules are retold here after PMC2615606.

The target of data set [1] is T1, Sp1 (rhSp1) (UniProt P08047 1-785). As to the kind of experiment: competition.
For data set [2], the target named is T1, Sp1 (rhSp1). The experiment in a line: EMSA.

T1 sequence (P08047 whole entry): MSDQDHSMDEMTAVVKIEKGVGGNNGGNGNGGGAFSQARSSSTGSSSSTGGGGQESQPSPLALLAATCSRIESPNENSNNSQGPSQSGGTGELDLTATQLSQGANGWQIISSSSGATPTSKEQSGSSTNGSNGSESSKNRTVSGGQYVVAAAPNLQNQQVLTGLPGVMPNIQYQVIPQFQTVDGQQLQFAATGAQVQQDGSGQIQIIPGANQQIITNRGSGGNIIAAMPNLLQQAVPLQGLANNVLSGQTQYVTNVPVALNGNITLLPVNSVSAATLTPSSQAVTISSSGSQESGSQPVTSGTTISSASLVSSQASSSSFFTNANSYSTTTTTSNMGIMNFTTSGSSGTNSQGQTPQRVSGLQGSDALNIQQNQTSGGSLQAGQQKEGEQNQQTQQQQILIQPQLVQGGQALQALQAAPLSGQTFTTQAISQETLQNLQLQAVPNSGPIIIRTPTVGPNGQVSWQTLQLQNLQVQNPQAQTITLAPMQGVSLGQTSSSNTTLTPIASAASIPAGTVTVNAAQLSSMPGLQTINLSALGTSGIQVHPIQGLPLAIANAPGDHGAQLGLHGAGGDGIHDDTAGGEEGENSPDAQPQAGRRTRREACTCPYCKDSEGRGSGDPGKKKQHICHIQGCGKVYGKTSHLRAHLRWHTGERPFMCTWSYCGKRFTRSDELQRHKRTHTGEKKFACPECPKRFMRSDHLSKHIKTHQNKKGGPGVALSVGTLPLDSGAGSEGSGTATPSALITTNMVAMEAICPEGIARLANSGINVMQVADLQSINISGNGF

B1: DUT Sp1Δ (dsDNA)
DNA 1: GTTCGGTGGGTGGTTCGGGGCTGGCTTG
DNA 2: CAAGCCAGCCCCGAACCACCCACCGAAC
Regarding B1, the binding result in the data set with Sp1 (rhSp1) [1] is recorded as “no binding”.

B2: DUT Sp1 (-64 to -91) (dsDNA)
DNA 1: GGGCGGTGGGTGGGGCGGGGCTGGCGGG
DNA 2: CCCGCCAGCCCCGCCCCACCCACCGCCC
On to B2, for which the binding result with Sp1 (rhSp1) [2] is “binds”.
